According to patent US8680233B2, “Heteropeptides useful for reducing nonspecific adsorption” (Valorisation-Recherche, Limited Partnership, priority 2009, dated 2014):
Numbered stars: 1 amine (or outer) side, 2 acyl side, 3 side chain; on linkers, the order of the positions; unused ones are H or OH. Square brackets hold non-standard residues; d marks the D form. Ends that are not written are not given here. Peptide text beside a SMILES is read from it. azaTyr = O=C(N(Cc1ccc(O)cc1)N[*:1])[*:2]; azaPhe = O=C(N(Cc1ccccc1)N[*:1])[*:2]; azaLeu = CC(C)CN(N[*:1])C(=O)[*:2]; azaGly = NNC(=O)O; Mpa = O=C(O)CCS

Tests used:
[1] = Surface concentration of the peptide monolayer on Au by SPR; type: physicochemical; conditions: peptide SAM on Au SPR sensor; average of four replicates
Protocol: The surface coverage for each monolayer was measured according to the change in response of the SPR sensor in PBS for the bare Au surface relative to the peptide-coated Au surface. To measure the formation of the monolayers, each SPR sensor was mounted on a custom-made SPR instrument in the Kretschmann configuration based on a dove prism with wavelength interrogation as previously described (Bolduc et al., 2009, supra). An Ocean Optics™ USB4000 fibre optic spectrometer ranging from 550 to 850 nm was used to acquire the spectral information processed with Matlab to obtain the SPR sensorgram. A 25 μL Teflon fluidic cell positioned on top of the SPR sensors was used to inject the solutions required to functionalize with the recognition element and detect the analytes of interest. The SPR response was acquired at a frequency of 1 Hz. The s-polarized reference was acquired in PBS buffer before monitoring a 5 minute baseline in p-polarization. PBS was replaced with crude bovine serum (76 mg/mL protein) for 20 minutes and rinsed with PBS for 5 minutes to quantify the amount of non-specifically adsorbed proteins.
The formation of monolayers on Au was measured to ensure that the peptide monolayers are indeed binding to the SPR sensor. The surface concentration of the monolayer provides a measurement of the number of molecules per square cm (i.e. the density of the monolayer at the surface). The surface concentration (Γ) of peptide-like self-assembled monolayers (SAMs) was characterized with the measurement of the SPR response before the formation of the SAMs and after their formation on the Au surface of the SPR sensor. The difference of SPR wavelength (λSPR) between these two measurements increases with the increasing surface concentration of the SAMs following the equation proposed by Jung et al. (Jung, L. S. et al. Langmuir 1998, 14: 5636): Γ=ρ(−0.5/d)ln(1−(ΔλSPRm^−1(ηSAM−ηPBS)^−1)) (eq. 1)

[2] = Advancing contact angle in PBS on peptide SAMs; type: physicochemical; conditions: average of four replicates
[3] = Secondary structure of peptide SAM by FT-IR (mid-IR amide band); type: physicochemical; conditions: peptide SAM on gold-coated SPR sensor
Protocol: Microscope slides (BK7, 22×22 mm) were coated with a 3 nm titanium (Ti) adhesion layer and a 50 nm gold (Au) layer (purity 99.99%, ESPI metals) using a Cressington™ 308R sputter coater. These Au-coated SPR slides were immersed for at least 16 h in a 5 mM peptide solution in absolute ethanol to form a well-ordered monolayer (Masson, J. F. et al. Talanta 2004, 64: 716). Four replicates were prepared for each 3-MPA-peptide. The SAM formed on the SPR sensors was extensively rinsed with DMF and ethanol and dried. The mid-IR spectrum of the peptide monolayers immobilized on the SPR sensors was measured in attenuated total reflectance (ATR). Mid-IR spectra were recorded using a BRUKER TENSOR® 27 equipped with a Ge-ATR module.
The 3D structure of the peptides as SAMs is observed with the amide band visible in FT-IR. Peptides adopting an α-helix configuration are showing a strong amide band at 1645 cm^−1, while peptides auto-assembling in the β-sheet configuration leads to a shifted amide at 1675 cm^−1. Every peptide structure investigated in Table 1 adopted an α-helix configuration except for 3-MPA-HHHDD-OH, as shown in FIG. 3.
(§1) Peptides adopt secondary conformation, which plays a significant role in their biological activity. For peptides in solution, the secondary conformation is measured with CD, while peptides immobilized on a surface can be analyzed with mid-IR spectroscopy of the amide bands (Duevel, R. V., Corn, R. M., 1992. Analytical Chemistry 64(4), 337-342; Sakurai, T. et al., 2006. Journal of Peptide Science 12(6), 396-402). As listed in Table II, the secondary structure of most peptides adopted an α-helical conformation, with the exception of 3-MPA-DSDSD-OH, which adopted an extended conformation. As noted above, most peptides in the form of 3-MPA-peptide-OH adopt an α-helical conformation. Generally, mid-IR and CD agreed in the determination of the structures on surfaces and in solution, with the exception of one peptide. […] No relationship between structure and nonspecific adsorption could be established.

[4] = Secondary structure of peptide in solution by CD; type: physicochemical
Protocol: as §1

[5] = molecular target: recombinant soluble His-tagged CD36 (Homo sapiens, UniProt P16671); assay: SPR screening of peptide ligands on a CD36 functionalized sensor; type: binding; conditions: for Kd: CD36 functionalized sensor, linear Langmuir plot
Chain of recombinant soluble His-tagged CD36 (P16671 30-439 limits assumed): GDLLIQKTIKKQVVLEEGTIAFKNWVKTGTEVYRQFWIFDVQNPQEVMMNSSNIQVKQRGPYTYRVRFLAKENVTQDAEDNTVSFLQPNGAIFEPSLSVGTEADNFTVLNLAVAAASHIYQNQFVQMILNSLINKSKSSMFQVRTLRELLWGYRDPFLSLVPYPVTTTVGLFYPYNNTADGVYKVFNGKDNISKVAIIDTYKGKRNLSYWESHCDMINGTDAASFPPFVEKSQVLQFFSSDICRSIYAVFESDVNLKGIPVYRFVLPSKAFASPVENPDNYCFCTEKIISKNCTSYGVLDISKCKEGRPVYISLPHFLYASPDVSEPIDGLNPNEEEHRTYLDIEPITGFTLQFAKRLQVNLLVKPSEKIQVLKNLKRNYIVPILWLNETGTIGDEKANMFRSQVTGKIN
Protocol: The SPR sensors for screening small peptidic ligand binding to a recombinant soluble His-tagged CD36 functionalized surfaces were prepared as described above. Five ligands were investigated: EP80317, CP-2B(i), CP-3(iv), CP-2A(v) and DBG-178(27) with concentrations ranging from 30 μM to 100 nM except for EP80317. The latter was used for optimizing the system with solutions ranging from 1 mM to 100 nM. EP80317 (HAIC-2MeDTrp-DLys-Trp-D-Phe-Lys-NH2) is a positive control of known activity, CP-2B(i) (His-DTrp-AzaLeu-Trp-DPhe-Ala-NH2) is a negative control, and CP-3(iv) (Ala-DTrp-Ala-AzaPhe-DPhe-Lys-NH2), CP-2A(v) (His-DTrp-AzaGly-Trp-DPhe-Lys-NH2) and DBG-178(27) (His-DTrp-Ala-azaTyr-DPhe-Lys-NH2) are novel CD36 ligands (see PCT publication No. WO 08/154,738). Another negative control was accomplished by exposing the His-tagged hDHFR functionalized surface to the same concentration of CD36 peptidic ligand. Two different approaches were used to remove the His-tagged CD36-Cu complex from the SPR sensors: concentrated histidine solution or saturated EDTA solution.
This is the case of the CD36-ligand system investigated herein, where the ligands are small peptides of about 800 to 1000 g/mol. Indeed, according to the aforementioned principle, the binding of the small peptides to the CD36 receptor should be close to the limit of detection, thus providing unreliable affinity measurements. […] This could be a consequence of a large conformational change of the CD36 receptor upon binding of specific ligands, thus providing the amplification sufficient for SPR signal detection.
(§2) The SPR setup was used for investigating the structure-activity relationships of various CD36 peptidic ligands. […] The measured KD's were compared to the EC50 values obtained in the activated src-kinase assay following CD36 receptor activation by the tested peptides. […] For the src-kinase cellular assay, the response sensitivity (EC50) for the tested peptides (in decreasing order) was as follows: EP80317>CP-2A(v)>CP-3(iv)>DBG-178(27)>CP-2B(i). With SPR, the binding affinity to CD36, in decreasing order, was: DBG-178(27)>CP-2A(v)>EP80317>CP-3(iv)>CP-2B(i). […] For CD36-peptidic ligands, a correlation appears between the affinity binding of the small peptides for CD36 as determined by SPR and their efficiency to produce a cellular response in the src kinase assay. Thus, SPR appears as a selective and sensitive method to screen for CD36 ligands.

[6] = molecular target: CD36 receptor (Homo sapiens, UniProt P16671); assay: SRC-kinase cellular assay following CD36 receptor activation; type: cell-based; conditions: activation of src-kinases after CD36 receptor activation
Chain of CD36 receptor (P16671 whole entry): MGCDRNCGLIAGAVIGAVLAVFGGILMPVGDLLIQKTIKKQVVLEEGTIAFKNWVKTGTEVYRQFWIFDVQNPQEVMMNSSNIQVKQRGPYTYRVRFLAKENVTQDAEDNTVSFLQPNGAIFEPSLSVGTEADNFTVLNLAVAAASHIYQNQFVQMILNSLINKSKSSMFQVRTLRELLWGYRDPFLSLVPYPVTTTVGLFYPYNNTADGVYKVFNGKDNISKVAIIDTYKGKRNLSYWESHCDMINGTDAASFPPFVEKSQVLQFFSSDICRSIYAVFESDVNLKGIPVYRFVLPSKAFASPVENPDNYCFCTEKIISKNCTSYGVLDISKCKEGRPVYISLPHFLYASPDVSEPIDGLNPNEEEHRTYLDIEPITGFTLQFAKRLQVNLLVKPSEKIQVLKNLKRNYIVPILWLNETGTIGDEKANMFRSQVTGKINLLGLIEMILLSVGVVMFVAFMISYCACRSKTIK
Description: as §2

| Compound | Surface density ΔΓSAM [1] | Contact angle in PBS θC_PBS [2] [°] | Secondary Structure FT-IR (SAM) [3] | Secondary Structure CD (solution) [4] | also measured |
| --- | --- | --- | --- | --- | --- |
| 3-MPA-DDDHH ([Mpa]DDDHH) | 0.279 10^15 molecule/cm^2 | 46.4 | – | – | – |
| 3-MPA-DDDSS ([Mpa]DDDSS) | 0.311 10^15 molecule/cm^2 | 51.2 | – | – | – |
| 3-MPA-DHDHD-OH ([Mpa]DHDHD-OH; SMILES O=C(O)C[C@H](NC(=O)[C@H](Cc1c[nH]cn1)NC(=O)[C@H](CC(=O)O)NC(=O)[C@H](Cc1c[nH]cn1)NC(=O)[C@H](CC(=O)O)NC(=O)CCS)C(=O)O) | – | – | α | α | – |
| 3-MPA-DSDSD-OH ([Mpa]DSDSD-OH; SMILES O=C(O)C[C@H](NC(=O)[C@H](CO)NC(=O)[C@H](CC(=O)O)NC(=O)[C@H](CO)NC(=O)[C@H](CC(=O)O)NC(=O)CCS)C(=O)O) | – | – | extended | extended | – |
| 3-MPA-GGGGD-OH ([Mpa]GGGGD-OH; SMILES O=C(O)C[C@H](NC(=O)CNC(=O)CNC(=O)CNC(=O)CNC(=O)CCS)C(=O)O) | – | – | α | α | – |
| 3-MPA-GGHHDD-OH ([Mpa]GGHHDD-OH; SMILES O=C(O)C[C@H](NC(=O)[C@H](CC(=O)O)NC(=O)[C@H](Cc1c[nH]cn1)NC(=O)[C@H](Cc1c[nH]cn1)NC(=O)CNC(=O)CNC(=O)CCS)C(=O)O) | – | – | α | α | – |
| 3-MPA-HHHSS ([Mpa]HHHSS) | 0.125 10^15 molecule/cm^2 | 39.9 | – | – | – |
| 3-MPA-LHDLHD-OH ([Mpa]LHDLHD-OH; SMILES CC(C)C[C@H](NC(=O)CCS)C(=O)N[C@@H](Cc1c[nH]cn1)C(=O)N[C@@H](CC(=O)O)C(=O)N[C@@H](CC(C)C)C(=O)N[C@@H](Cc1c[nH]cn1)C(=O)N[C@@H](CC(=O)O)C(=O)O) | – | – | α | α | – |
| 3-MPA-LLHHDD-OH ([Mpa]LLHHDD-OH; SMILES CC(C)C[C@H](NC(=O)CCS)C(=O)N[C@@H](CC(C)C)C(=O)N[C@@H](Cc1c[nH]cn1)C(=O)N[C@@H](Cc1c[nH]cn1)C(=O)N[C@@H](CC(=O)O)C(=O)N[C@@H](CC(=O)O)C(=O)O) | – | – | α | α | – |
| 3-MPA-LLLDD ([Mpa]LLLDD) | 0.352 10^15 molecule/cm^2 | 52.3 | – | – | – |
| 3-MPA-LLLHH ([Mpa]LLLHH) | 0.296 10^15 molecule/cm^2 | 41.4 | – | – | – |
| 3-MPA-LLLSS ([Mpa]LLLSS) | 0.255 10^15 molecule/cm^2 | 32.6 | – | – | – |
| 3-MPA-SHDSHD-OH ([Mpa]SHDSHD-OH; SMILES O=C(O)C[C@H](NC(=O)[C@H](Cc1c[nH]cn1)NC(=O)[C@H](CO)NC(=O)[C@H](CC(=O)O)NC(=O)[C@H](Cc1c[nH]cn1)NC(=O)[C@H](CO)NC(=O)CCS)C(=O)O) | – | – | α-helical and α | extended | – |
| 3-MPA-SSSDD ([Mpa]SSSDD) | 0.441 10^15 molecule/cm^2 | 38.8 | – | – | – |
| 3-MPA-SSSHH ([Mpa]SSSHH) | 0.301 10^15 molecule/cm^2 | 40.0 | – | – | – |
| NCCCC[C@H](NC(=O)[C@@H](Cc1ccccc1)NC(=O)[C@H](Cc1c[nH]c2ccccc12)NC(=O)NNC(=O)[C@@H](Cc1c[nH]c2ccccc12)NC(=O)[C@@H](N)Cc1cnc[nH]1)C(N)=O [CP-2A(v), His-DTrp-AzaGly-Trp-DPhe-Lys-NH2] (H-H[dW][azaGly]W[dF]K-NH2) | – | – | – | – | Kd [5]: 44 nM; EC50 [6]: 26 nM |
| CC(C)CN(NC(=O)[C@@H](Cc1c[nH]c2ccccc12)NC(=O)[C@@H](N)Cc1c[nH]cn1)C(=O)N[C@@H](Cc1c[nH]c2ccccc12)C(=O)N[C@H](Cc1ccccc1)C(=O)N[C@@H](C)C(N)=O [CP-2B(i), His-DTrp-AzaLeu-Trp-DPhe-Ala-NH2, reference compound] (H-H[dW][azaLeu]W[dF]A-NH2) | – | – | – | – | Binding affinity to CD36 (in words) ([5]; negative control): low binding affinity |
| CC(C)CN(NC(=O)[C@@H](Cc1c[nH]c2ccccc12)NC(=O)[C@@H](N)Cc1cnc[nH]1)C(=O)N[C@@H](Cc1c[nH]c2ccccc12)C(=O)N[C@H](Cc1ccccc1)C(=O)N[C@@H](C)C(N)=O [CP-2B(i), His-DTrp-AzaLeu-Trp-DPhe-Ala-NH2, reference compound] (H-H[dW][azaLeu]W[dF]A-NH2) | – | – | – | – | Kd [5]: 1400 nM; EC50 [6]: > 10000 nM |
| C[C@H](N)C(=O)N[C@H](Cc1c[nH]c2ccccc12)C(=O)N[C@@H](C)C(=O)NN(Cc1ccccc1)C(=O)N[C@H](Cc1ccccc1)C(=O)N[C@@H](CCCCN)C(N)=O [CP-3(iv), Ala-DTrp-Ala-AzaPhe-DPhe-Lys-NH2] (H-A[dW]A[azaPhe][dF]K-NH2) | – | – | – | – | Kd [5]: 380 nM; EC50 [6]: 44 nM |
| C[C@H](NC(=O)[C@@H](Cc1c[nH]c2ccccc12)NC(=O)[C@@H](N)Cc1cnc[nH]1)C(=O)NN(Cc1ccc(O)cc1)C(=O)N[C@H](Cc1ccccc1)C(=O)N[C@@H](CCCCN)C(N)=O [DBG-178(27), His-DTrp-Ala-azaTyr-DPhe-Lys-NH2] (H-H[dW]A[azaTyr][dF]K-NH2) | – | – | – | – | Kd [5]: 22 nM; EC50 [6]: 63 nM |
